Assay results taken from patent publication US20230080865A1.

What was measured:
[1] = molecular target: AEG::SOE3 chimeric recombinant protein; assay: ELISA, AEG::SOE3 coated on wells; reagent 1:1000
[2] = molecular target: AEG::SOE2 chimeric recombinant protein; assay: ELISA, AEG::SOE2 coated on wells; reagent 1:1000

## secondary peroxidase-conjugated goat anti-mouse IgG (antibody)
[1]
  ELISA signal: 0.111
[2]
  ELISA signal: 0.11
